In PMC12866822:

Molecular target: pyruvate kinase M2 (PKM2), endogenous in RAW264.7 macrophages (mouse (endogenous in RAW264.7)) (UniProt P52480)
Experiment: cross-linking; lysates (RIPA buffer) of cells with endogenous PKM2 (RAW264.7, LX2, WRL68) treated with 1 µM DSS on ice for 1 h, SDS-PAGE, blot with PKM2 antibody; cells treated with the four compounds, or LPS with FE (12.5, 25, 50 µM) or DASA-58

Chain of pyruvate kinase M2 (PKM2), endogenous in RAW264.7 macrophages, P52480 1-531 (enzyme; other documents disagree on this pair) (P52480 whole entry): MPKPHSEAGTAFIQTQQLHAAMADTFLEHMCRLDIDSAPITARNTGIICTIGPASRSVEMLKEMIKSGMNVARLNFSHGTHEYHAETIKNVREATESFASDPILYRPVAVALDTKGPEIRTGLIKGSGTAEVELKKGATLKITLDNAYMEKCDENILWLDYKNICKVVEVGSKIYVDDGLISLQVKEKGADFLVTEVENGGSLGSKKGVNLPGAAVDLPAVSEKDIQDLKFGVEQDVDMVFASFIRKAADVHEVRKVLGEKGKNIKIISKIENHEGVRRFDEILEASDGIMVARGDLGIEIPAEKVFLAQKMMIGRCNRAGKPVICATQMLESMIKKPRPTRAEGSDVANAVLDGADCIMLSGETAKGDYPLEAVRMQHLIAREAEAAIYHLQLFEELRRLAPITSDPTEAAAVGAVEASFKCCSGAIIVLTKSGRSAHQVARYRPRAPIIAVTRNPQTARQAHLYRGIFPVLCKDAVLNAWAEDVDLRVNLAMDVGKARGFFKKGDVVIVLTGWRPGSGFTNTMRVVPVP

pyruvate kinase M2 (PKM2), endogenous in RAW264.7 macrophages, P52480 1-531 (enzyme; other documents disagree on this pair)
stoichiometry N: 4
